Test results: patent US20240294624A1, “ANTI-ERYTHROPOIETIN ANTIBODY” (ANDREMACON S.R.L., priority 2021, published 2024)

What was measured:
[1] = Plasma pharmacokinetics by SPR after single i.v. injection; format: in vivo; settings: mice with glioblastoma xenograft, single i.v. 10 mg/kg
Method: The ligands hEPO and BSA (Sigma-Aldrich, Italy, used as reference) were immobilized using amine-coupling chemistry on parallel channels of a CMD700L (Xantec GmbH) sensor chip. Briefly, surface was activated with sulfo NHS/EDC according to manufacturer's recommendation; hEPO and BSA were diluted at a concentration of 400 and 30 μg/mL in acetate buffer, pH 4.0 and 4.5, respectively. These solutions were flowed for 5 min at a rate of 30 μL/min over the activated chip surface. The remaining activated groups were blocked with ethanolamine, pH 8.0.
The analyte solutions (e.g. control plasma containing spiked anti-EPO (C4) antibody, or plasma/tissue samples from treated mice) were injected so that they flowed simultaneously on both immobilized hEPO and the reference surface. Dissociation was measured in the following 10 minutes. All of these assays were carried out at 25° C. […]
This method can thus allow to determine the plasma and tissue concentrations of antibody, on the basis of an appropriate calibration curve (FIG. 26A). The Lower Limit of Detection calculated was ˜0.5 μg/mL (˜3.3 nM), which corresponding to a LLD of 5 μg/mL in undiluted plasma.
The pharmacokinetic (PK) profile of anti-EPO (C4) was assessed after single i.v. injection in mice models for glioblastoma. In particular, the antibody concentrations were measured at different time points after treatment (from 6 hours to 1 week) in: […]

[2] = test system: SHSY-5Y; assay: MTT cell viability assay; format: cell-based, human; settings: 96 hours, 6 μg/ml
Text: K. Neuroblastoma cell line (SHSY-5Y) line is a cell line isolated from a bone marrow biopsy taken from a patient with neuroblastoma. SHSY cells are often used as in vitro models of oncological pathology and neuronal differentiation.

[3] = test system: S1PR1; assay: S1PR1 expression by immunofluorescence; format: cell-based, human; settings: S-ECs of pathological synovium
Method: ECs (1×10^4/well) were seeded into μ-Slide 8 Well, ibiTreat (Ibidi, Martinsried, Germany) collagen-coated. When cells reached the desired confluence, were fixed in paraformaldehyde 4% for 20 min at RT, washed twice with D-PBS and incubated with 0.1 M glycine to quench auto-fluorescence. Then, the coverslip was incubated with PBS+0.25% Triton ×100 to permeabilize cell membranes and then blocked in PBS+5% BSA for 30 min at RT. Incubation with anti-S1 PR1 primary antibody diluted in blocking buffer was performed overnight at 4° C. The following day, primary antibody was removed and fluorescent secondary antibody labelling was then added for 45 min at RT, protected from light, washed and finally, the coverlips were mounted with ProLong Gold Antifade Mountant (ThermoFisher). Immunolabeling was acquired using an inverted DM14 microscope equipped with DFC350×CCDcamera and LAS-X software (all from Leica Microsystems, Wetzlar, Germany). […] S1 PR1 levels are increased in pro-tumoral and pro-angiogenic conditions, when intracellular and extracellular levels of S1 P are presented. It is possible therefore to hypothesize the use of the anti-EPO (C4) antibody, such as in direct intra-articular treatment in the form of gel or suspension, in association or not with “coagulation factors and their derivatives” and also comprising FTY720 and negative modulators of the sphingosine-1-phosphate pathway.

[4] = Tissue distribution by SPR (tumor, liver, kidney); format: in vivo, mice
Method: Tumor tissues were analyzed after their homogenization in TBST (1 g/2 mL) with an Precellys ysing Kit tubes, ultracentrifugation for 1 h at 110000 g and 1:2 dilution of the supernatant into optimized TBST buffer.
The pharmacokinetic (PK) profile of anti-EPO (C4) was assessed after single i.v. injection in mice models for glioblastoma. In particular, the antibody concentrations were measured at different time points after treatment (from 6 hours to 1 week) in:
1) plasma, to determine the main PK parameters (mainly half-time of elimination and volume of distribution); 2) tumor, to assess the antibody presence in the target tissue; 3) in kidney and liver to evaluate the elimination route.
When tumor masses reached about 500 mg, animals were treated i.v. with 10 mg/kg of anti-EPO (C4) antibody. Blood samples were collected from the retroorbital plexus under isoflurane anesthesia at 4, 24, 48, 72, 120, and 168 h from treatment (FIG. 26B). Mice were sacrificed by cervical dislocation. Tumors were collected. To obtain plasma, blood samples were centrifuged at 4000 rpm for 10 min at 4° C. All samples were immediately frozen in dry ice and then stored at −20° C. until analysis. Four mice were used at each time point.

[5] = Renal and liver toxicity, serum biochemistry; format: in vivo; settings: mice; 11 and 18 days after treatment starting
Method: Serum for Biochemistry were collected at least 400 μL of blood and putted it in an eppendorf tube with or without (plasma/serum) anticoagulant. The samples were left at environment temperature for at least 30′ minutes, then centrifuged at 500 g for 10 min, the supernatants were collected, being careful not to take the precipitate and analyzed for Biochemical tests. […] (A) Urea; (B) Creatinine; (C) Albumine, (D) AST; aspartate aminotransferase; (E) ALT: alanine aminotransferase. (FIG. 29)

[6] = test system: U373 cells; assay: MTT viability of chemo-resistant cells; format: cell-based; settings: 96 h
[7] = test system: primary GSCs; assay: MTT cell viability assay; format: cell-based, human; settings: 96 hours, anti-EPO (C4) 6 μg/ml, TMZ 100 μM, FTY720 100 nM
Text: A. Primary glioblastoma cancer stem cells (GCSc).

B1: anti-EPO (C4): isolated anti-Erythropoietin monoclonal antibody, VL SEQ ID NO:6, VH SEQ ID NO:14, hybridoma DSM ACC 3370 (antibody, listed as Homo sapiens, V domains shown)
VH: EVKLQESGGGLVQPGGSLKLSCAASGFTFSTYTMSWVRQTPEKRLEWVAYISNGGDRTYYPDTVKGRFTISRDDAKNTLFLQMSSLKSEDTAMYYCARHNITTVPFTMDYWGQGTSVTVSS
VL: DIVLTQSPASLAVSLGQRATISCRASESVDYYGTGLMQWYQQRPGQPPKLLIYGASNVGSGVPARFSGSGSGTDFSLNIHPVEGDDIAMYFCQQTRKVPSTFGGGTKLEIK
modifications: VH amino acid sequence; VL amino acid sequence
half-time of elimination [1]: about 4.4 days
cells initially plated dead [2]: 62%
S1PR1 expression levels [3]: decreased expression levels of S1 PR1
antibody distribution tumor vs kidney and liver ([4]; i.v. 10 mg/Kg, SPR): higher levels of antibody in the tumoral tissues respect to kidney and liver
antibody levels in tumor tissues, PK profile ([4]; tumor, i.v. 10 mg/kg): levels were measurable, with a bell-shaped PK profile
serum biochemistry (urea, creatinine, albumine, AST, ALT) [5]: no significant variations
percent survival [6]: 30%
cells initially seeded dead [7]: about 73%
